Experimental data reported in patent US20100197768A1 (UNIVERSITY OF ROCHESTER, published 2010).

B1: N1/2 (CD1-NCD1, a.a. 1-208 of hA3G) (other, human, UniProt Q9HC16 1-208, looked up)
chain: MKPHFRNTVERMYRDTFSYNFYNRPILSRRNTVWLCYEVKTKGPSRPPLDAKIFRGQVYSELKYHPEMRFFHWFSKWRKLHRDQEYEVTWYISWSPCTKCTRDMATFLAEDPKVTLTIFVARLYYFWDPDYQEALRSLCQKRDGPRATMKIMNYDEFQHCWSKFVYSQRELFEPWNNLPKYYILLHIMLGEILRHSMDPPTFTFNFNN
notes: range 1-208; Expressed in 293T cells; tested in RNase A treated cell extracts; also called N-terminal half of hA3G; not shown: N-terminal tag HA, V5, EGFP-HA or EGFP-V5, differing by experiment
B2: CD1 (catalytic domain 1, a.a. 1-143 of hA3G) (other, human, UniProt Q9HC16 1-143, looked up, not shown: small tags and cut ends)
chain: MKPHFRNTVERMYRDTFSYNFYNRPILSRRNTVWLCYEVKTKGPSRPPLDAKIFRGQVYSELKYHPEMRFFHWFSKWRKLHRDQEYEVTWYISWSPCTKCTRDMATFLAEDPKVTLTIFVARLYYFWDPDYQEALRSLCQKRD
notes: range 1-143; also called N-terminal catalytic domain
B3: NCD1 (non-catalytic domain 1, a.a. 144-208 of hA3G) (other, human, UniProt Q9HC16 144-208, looked up)
chain: GPRATMKIMNYDEFQHCWSKFVYSQRELFEPWNNLPKYYILLHIMLGEILRHSMDPPTFTFNFNN
notes: range 144-208; not shown: N-terminal tag HA, V5, EGFP-HA or EGFP-V5, differing by experiment

Key:
[1] = biological target: T1, Protein A (agarose beads, no antibody) (UniProt P38507 37-477); test: IP with Protein A beads alone
T1 construct: Bead-only control of the immunoprecipitations; also called Protein A beads
Protocol: (§1) Twenty-four hours after transfection the cells were harvested and cell extracts were analyzed by co-immunoprecipitation (co-IP). Extracts were treated with RNase A prior to IP to eliminate interactions that were due to RNA bridging.
(§2) Co-immunoprecipitation analysis. […] 24 hours after transfection cell extracts were harvested in NP-40 lysis buffer (50 mM Tris pH 7.4, 150 mM NaCl, 0.1% NP-40) with Complete® Mini EDTA free protease inhibitors (Roche). Cell extracts were treated with 40 μg/mL of RNase A for 1 hour at 37° C. and subsequently pre-cleared with Protein A agarose beads (Roche) tumbling for 1 hour at 4° C. The pre-cleared extracts were split and added to a Protein A bead slurry±V5 (Invitrogen) or GFP antibody (Clontech) for immunoprecipitation by tumbling overnight at 4° C. The beads were washed 3 times with NP-40 lysis buffer and eluted 3 times with 1×Treat (50 mM Tris pH 7.4, 10 mM DTT, 0.1% SDS).

[2] = biological target: the molecule itself; test: co-IP of HA and V5 tagged forms, V5 IP, HA western
Protocol: as §1, §2

[3] = biological target: T2, HIV-1 p55 Gag polyprotein (HIV-1, UniProt P12493 2-500); test: V5 IP of hA3G domain, p24 western for Gag, RNase A treated 293T extracts
T2 construct: Expressed in 293T cells co-transfected with HIV-1 DNA; detected with a p24 antibody
Protocol: Co-IP experiments were performed using various hA3G domains and Gag or Vif following RNase A digestion of cell extracts.
as §2

[4] = biological target: B2; test: co-IP of HA and V5 tagged domains, V5 IP, HA western
Protocol: as §1, §2

[5] = biological target: the molecule itself; test: summary of the co-IP results of Example 2
Protocol: as §1, §2

[6] = biological target: B3; test: co-IP of HA and V5 tagged domains, V5 IP, HA western
Protocol: as §1, §2

[7] = biological target: the molecule itself; test: co-IP of HA and V5 tagged forms, V5 IP, HA western, RNase A treated 293T extracts
Protocol: as §1, §2

[8] = biological target: B1; test: co-IP of HA and V5 tagged domains, V5 IP, HA western
Protocol: as §1, §2

EGFP-HA tagged Vif = biological target: T3, EGFP-HA tagged Vif (HIV-1, UniProt P12504 1-192); test: GFP antibody IP of EGFP-HA-Vif, western for the hA3G domain, RNase A treated 293T extracts
T3 construct: Expressed in 293T cells from pIRES-P; also called EGFP-HA-Vif; HIV-1 Vif; not shown: N-terminal EGFP-HA tag
T3 sequence (P12504 whole entry, the tested form may be a part): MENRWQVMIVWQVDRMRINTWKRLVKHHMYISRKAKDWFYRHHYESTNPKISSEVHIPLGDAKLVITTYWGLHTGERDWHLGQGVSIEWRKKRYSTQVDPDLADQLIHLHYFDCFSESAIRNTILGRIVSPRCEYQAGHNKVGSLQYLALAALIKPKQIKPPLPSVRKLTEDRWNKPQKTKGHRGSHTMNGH

Row | Binder | binding result [1] | binding result [2] | binding result [3] | further results
1 | B1 | no binding | no binding |  | 
2 | B2 | no binding | no binding | no binding | 
3 | CD2 (catalytic domain 2, a.a. 209-336 of hA3G) (other, human, UniProt Q9HC16 209-336, looked up, also called C-terminal catalytic domain; not shown: N-terminal tag HA, V5, EGFP-HA or EGFP-V5, differing by experiment) EPWVRGRHETYLCYEVERMHNDTWVLLNQRRGFLCNQAPHKHGFLEGRHAELCFLDVIPFWKLDLDQDYRVTCFTSWSPCFSCAQEMAKFISKNKHVSLCIFTARIYDDQGRCQEGLRTLAEAGAKIS | no binding |  | no binding | binding result [4]: no binding; binding result [5]: binds
4 | IMTYSEFKHCWDTFVDHQGCPFQPWDGLDEHSQDLSGRLRAILQNQEN (other, human, UniProt Q9HC16 337-384, looked up, range 337-384; not shown: N-terminal tag HA, V5, EGFP-HA or EGFP-V5, differing by experiment) [NCD2 (non-catalytic domain 2, a.a. 337-384 of hA3G)] | no binding | no binding |  | binding result [6]: no binding
5 | C3/4 (larger C-terminal domain lacking only CD1, a.a. 144-384 of hA3G) (other, human, UniProt Q9HC16 144-384, looked up, range 144-384; not shown: N-terminal tag HA, V5, EGFP-HA or EGFP-V5, differing by experiment) GPRATMKIMNYDEFQHCWSKFVYSQRELFEPWNNLPKYYILLHIMLGEILRHSMDPPTFTFNFNNEPWVRGRHETYLCYEVERMHNDTWVLLNQRRGFLCNQAPHKHGFLEGRHAELCFLDVIPFWKLDLDQDYRVTCFTSWSPCFSCAQEMAKFISKNKHVSLCIFTARIYDDQGRCQEGLRTLAEAGAKISIMTYSEFKHCWDTFVDHQGCPFQPWDGLDEHSQDLSGRLRAILQNQEN | no binding |  |  | binding result [7]: binds
6 | B3 | no binding | no binding |  | 
7 | C1/2 (CD2-NCD2, a.a. 209-384 of hA3G) (other, human, UniProt Q9HC16 209-384, looked up, Self co-IP was done with and without EGFP (±EGFP); also called C-terminal half of hA3G; not shown: N-terminal tag HA, V5, EGFP-HA or EGFP-V5, differing by experiment) EPWVRGRHETYLCYEVERMHNDTWVLLNQRRGFLCNQAPHKHGFLEGRHAELCFLDVIPFWKLDLDQDYRVTCFTSWSPCFSCAQEMAKFISKNKHVSLCIFTARIYDDQGRCQEGLRTLAEAGAKISIMTYSEFKHCWDTFVDHQGCPFQPWDGLDEHSQDLSGRLRAILQNQEN | no binding |  | no binding | binding result [8]: no binding; binding result (EGFP-HA tagged Vif): no binding; binding result [7]: binds
